Results: patent US20120207676

Columns and labels:
[1] = biological target: T1, Neurotensin receptor NTS1 (HT29 cells/membranes) (human), P30989; assay: competition, HT29 cells; settings: modification not given
[2] = biological target: T1, Neurotensin receptor NTS1 (HT29 …); assay: competition, HT29 membranes; settings: modification not given

T1 sequence (P30989 whole entry): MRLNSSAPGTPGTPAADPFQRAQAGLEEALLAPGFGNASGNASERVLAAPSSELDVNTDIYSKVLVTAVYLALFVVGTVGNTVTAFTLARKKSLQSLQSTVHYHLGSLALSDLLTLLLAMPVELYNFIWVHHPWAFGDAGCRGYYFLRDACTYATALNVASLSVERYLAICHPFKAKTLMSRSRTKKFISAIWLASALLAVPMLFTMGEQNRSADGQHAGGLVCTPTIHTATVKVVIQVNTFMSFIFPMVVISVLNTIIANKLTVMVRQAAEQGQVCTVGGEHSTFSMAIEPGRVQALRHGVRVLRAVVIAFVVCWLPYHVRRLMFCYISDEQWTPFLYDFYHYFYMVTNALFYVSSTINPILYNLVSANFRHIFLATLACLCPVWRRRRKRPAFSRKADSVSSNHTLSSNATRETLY

Binder | IC50 [1] [nM] | Ki [2] [nM]
KPRRPYIL [NT-20.1] | 0.82 | 0.072
KPRRPYIL [DTPA(In)-NT-20.2] | 41.2 | 1.55
KPRRPYIL [DOTA(In)-LB119] | 14.1 | 
KPRRPYIL [NT-20.2] | 2.46 | 0.26
KPRRPYIL [DOTA(Y)-LB119] | 9.9 | 
KPRRPYIL [DOTA(Ga)-LB119] | 7.5 | 
KPRRPYIL [DTPA(In)-NT-20.1] | 6.73 | 0.66
